Patent US20250011363A1, “OPTIMIZED SHORTENED PEPTIDE THAT BINDS TO ACETYLCHOLINE RECEPTOR, AND USE THEREOF” (SKINMED CO., LTD., priority 2021, published 2025)

B1: 6mer-2-21 (peptide)
peptide: RLFTRK
B2: 6mer-2-10 (peptide)
peptide: KVFSKK
B3: 6mer-2-22 (peptide)
peptide: RQIRKK
B4: 6mer-2-4 (peptide)
peptide: RSYYRR
B5: 6mer-2-11 (peptide)
peptide: RQYQRR
B6: 6mer-2-31 (peptide)
peptide: KSYQRK
B7: 6mer-2-9 (peptide)
peptide: KLICRK
B8: 6mer-2-24 (peptide)
peptide: KGIQRK
B9: 6mer-2-44 (peptide)
peptide: KSVRRK
B10: 6mer-2-18 (peptide)
peptide: RSILRR
B11: 6mer-2-30 (peptide)
peptide: RQFYKK
B12: 6mer-2-2 (peptide)
peptide: RWYLKR
B13: 6mer-2-16 (peptide)
peptide: KGVCRR
B14: 6mer-2-32 (peptide)
peptide: RRLCRK
B15: 6mer-2-20 (peptide)
peptide: RVQTRR
B16: 6mer-2-36 (peptide)
peptide: RRLQKK
B17: 6mer-2-35 (peptide)
peptide: RWISRK
B18: 6mer-2-28 (peptide)
peptide: KVLSRK
B19: 6mer-2-26 (peptide)
peptide: RWRRKK
B20: 6mer-2-33 (peptide)
peptide: RQFRKK
B21: 6mer-2-13 (peptide)
peptide: RQYTRK
B22: 6mer-2-40 (peptide)
peptide: RRYRKK
B23: 6mer-2-3 (peptide)
peptide: KVYSRK
B24: 6mer-2-37 (peptide)
peptide: KLLYRK
B25: 6mer-2-39 (peptide)
peptide: RWRYRK
B26: 6mer-2-23 (peptide)
peptide: RWVRKK
B27: 6mer-2-7 (peptide)
peptide: KSRCRK
B28: 6mer-2-29 (peptide)
peptide: RSQRKR
B29: 6mer-2-12 (peptide)
peptide: RQFQRK
B30: 6mer-2-15 (peptide)
peptide: KQVRKR
B31: 6mer-2-14 (peptide)
peptide: RGRQKK
B32: 6mer-2-17 (peptide)
peptide: RWVTRR
B33: 6mer-2-42 (peptide)
peptide: KLLSKR
B34: 6mer-2-25 (peptide)
peptide: KQVQKR
B35: 6mer-2-41 (peptide)
peptide: KQLCKR
B36: 6mer-2-8 (peptide)
peptide: KSLQKK
B37: 6mer-2-6 (peptide)
peptide: KSICRR
B38: 6mer-2-34 (peptide)
peptide: KVFRRK
B39: 6mer-2-5 (peptide)
peptide: RWVSKR
B40: 6mer-2-27 (peptide)
peptide: KVIRRK
B41: 6mer-2-43 (peptide)
peptide: RVITKR
B42: 6mer-2-19 (peptide)
peptide: RSFSKK
B43: 6mer-2-38 (peptide)
peptide: RSYYKR
B44: 6mer-2-1 (peptide)
peptide: RRRLKK
B45: 6mer-2-115 (peptide)
peptide: KWQYRK
B46: 6mer-2-122 (peptide)
peptide: RVITKK
B47: 6mer-2-134 (peptide)
peptide: RLFQRK
B48: 6mer-2-135 (peptide)
peptide: RWFYKK
B49: 6mer-2-131 (peptide)
peptide: KQQTKR
B50: 6mer-2-128 (peptide)
peptide: KSYYRR
B51: 6mer-2-123 (peptide)
peptide: RQFTKR
B52: 6mer-2-114 (peptide)
peptide: KLQYRK
B53: 6mer-2-108 (peptide)
peptide: RVVYKK
B54: 6mer-2-102 (peptide)
peptide: KVYQKK
B55: 6mer-2-120 (peptide)
peptide: RRQCRK
B56: 6mer-2-127 (peptide)
peptide: RLYLRK
B57: 6mer-2-106 (peptide)
peptide: RWVQRK
B58: 6mer-2-126 (peptide)
peptide: KWLYRR
B59: 6mer-2-112 (peptide)
peptide: RLQQKR
B60: 6mer-2-132 (peptide)
peptide: KLYCKK
B61: 6mer-2-109 (peptide)
peptide: RRVYRK
B62: 6mer-2-125 (peptide)
peptide: KVQLRR
B63: 6mer-2-113 (peptide)
peptide: KRYSRK
B64: 6mer-2-118 (peptide)
peptide: KWFSRR
B65: 6mer-2-116 (peptide)
peptide: KLQRKK
B66: 6mer-2-119 (peptide)
peptide: RSISKK
B67: 6mer-2-110 (peptide)
peptide: KSQLKK
B68: 6mer-2-117 (peptide)
peptide: KRYTRK
B69: 6mer-2-111 (peptide)
peptide: KLIRRK
B70: 6mer-2-121 (peptide)
peptide: KRVYRK
B71: 6mer-2-103 (peptide)
peptide: RVVTKK
B72: 6mer-2-104 (peptide)
peptide: RGVCRK
B73: 6mer-2-124 (peptide)
peptide: KWQLKR
B74: 6mer-2-107 (peptide)
peptide: RGVYRK
B75: 6mer-2-101 (peptide)
peptide: RLICRK
B76: 6mer-2-105 (peptide)
peptide: RGFTRR
B77: 6mer-2-130 (peptide)
peptide: RGVCRR
B78: 6mer-2-133 (peptide)
peptide: KRRLKK
B79: 6mer-2-129 (peptide)
peptide: KSVLRK

target: acetylcholine receptor; assay: SPR, AchR immobilized on chip, peptide at 10 uM

Row | Binding affinity | Binder
1 | 141 RU | B1
2 | 124 RU | B2
3 | 124 RU | B3
4 | 125 RU | B4
5 | 121 RU | B5
6 | 121 RU | B6
7 | 139 RU | B7
8 | 141 RU | B8
9 | 145 RU | B9
10 | 124 RU | B10
11 | 139 RU | B11
12 | 139 RU | B12
13 | 121 RU | B13
14 | 139 RU | B14
15 | 137 RU | B15
16 | 131 RU | B16
17 | 148 RU | B17
18 | 142 RU | B18
19 | 121 RU | B19
20 | 142 RU | B20
21 | 123 RU | B21
22 | 153 RU | B22

Row | Binding affinity | Binder
23 | 148 RU | B23
24 | 148 RU | B24
25 | 137 RU | B25
26 | 148 RU | B26
27 | 126 RU | B27
28 | 142 RU | B28
29 | 147 RU | B29
30 | 133 RU | B30
31 | 153 RU | B31
32 | 142 RU | B32
33 | 126 RU | B33
34 | 148 RU | B34
35 | 142 RU | B35
36 | 135 RU | B36
37 | 122 RU | B37
38 | 124 RU | B38
39 | 124 RU | B39
40 | 128 RU | B40
41 | 146 RU | B41
42 | 135 RU | B42
43 | 136 RU | B43
44 | 131 RU | B44

target: acetylcholine receptor; assay: SPR, peptide at 10 uM over immobilized acetylcholine receptor

Row | Binding affinity (RU) | Binder
45 | 144 RU | B45
46 | 125 RU | B46
47 | 148 RU | B47
48 | 124 RU | B48
49 | 148 RU | B49
50 | 147 RU | B50
51 | 146 RU | B51
52 | 121 RU | B52
53 | 153 RU | B53
54 | 139 RU | B54
55 | 146 RU | B55
56 | 136 RU | B56
57 | 123 RU | B57
58 | 148 RU | B58
59 | 142 RU | B59
60 | 139 RU | B60
61 | 144 RU | B61
62 | 142 RU | B62

Row | Binding affinity (RU) | Binder
63 | 145 RU | B63
64 | 135 RU | B64
65 | 126 RU | B65
66 | 139 RU | B66
67 | 153 RU | B67
68 | 148 RU | B68
69 | 123 RU | B69
70 | 137 RU | B70
71 | 136 RU | B71
72 | 145 RU | B72
73 | 126 RU | B73
74 | 144 RU | B74
75 | 154 RU | B75
76 | 151 RU | B76
77 | 122 RU | B77
78 | 145 RU | B78
79 | 139 RU | B79
